One assay deals with HLA-DRB1*0101 (human). Put plainly: competition binding. The settings on record: modification not given.
A further assay deals with HLA-DRB1*0301 (human). Put plainly: competition binding. The settings on record: modification not given.
Assay [1] addresses HLA-DRB1*1301 (human). Nature of the assay: competition binding. The settings on record: modification not given.
The target of another assay is HLA-DRB5*0101 (human). Nature of the assay: competition binding. The settings on record: modification not given.
Another assay has as its target HLA-DRB1*1101 (human). Put plainly: competition binding. The settings on record: modification not given.
The target in another assay is HLA-DRB3*0101 (human). Nature of the assay: competition binding. The settings on record: modification not given.
A further assay addresses HLA-DRB1*0401 (human). Nature of the assay: competition binding. The settings on record: modification not given.
The target in a further assay is HLA-DRB1*1501 (human). Put plainly: competition binding. The settings on record: modification not given.
Another assay has as its target HLA-DRB1*0701 (human). Put plainly: competition binding. The settings on record: modification not given.
For assay [2], the target named is HLA-DRB4*0101 (human). Put plainly: competition binding. The settings on record: modification not given.
For assay [3], the target named is T1, HLA-DRB1*1301 (human).
T1 chain 1: not shown
T1 chain 2: not shown
Nature of the assay: competition assay on purified, immobilised HLA-DR against the biotinylated reference peptide, pH 4.5.

Assay [4] concerns the target HLA-DRB4*0101 (human). Put plainly: competition. The settings on record: modification not given.

Data on nine molecules can be found in patent US20110038881A1, “PROGNOSTIC ASSAY FOR DETERMINING T CELL RESPONSE TO HLA ANTIGENS AND USE THEREOF IN FIELD OF TISSUE TRANSPLANTATION” (priority 2007, published 2011).

B1: p9 (peptide)
chain: SQRMEPRAPWIEQEGP
In general, IC50 refers to the point on the concentration scale where inhibition reaches its midpoint. For B1, the IC50 with HLA-DRB1*0101 (human) was 10.8 µM; in the assay with HLA-DRB1*0301 (human), greater than 100 µM; in the assay with HLA-DRB1*1301 (human) [1] it was 60 µM; in the assay with HLA-DRB5*0101 (human) it was 67.1 µM; in the assay with HLA-DRB1*1101 (human), 15.5 µM; with HLA-DRB3*0101 (human), greater than 100 µM. For the same molecule, the IC50 with HLA-DRB1*0401 (human) was greater than 100 µM; with HLA-DRB1*1501 (human) it was 33.2 µM; with HLA-DRB1*0701 (human), 83.7 µM; in the assay with HLA-DRB4*0101 (human) [2] it was greater than 100 µM.

B2: reference peptide B1 21-36 (peptide)
peptide: TERVRLVTRHIYNREE
modifications: not checked
As for B2, in the assay with HLA-DRB1*1301 (human) [3], the IC50 stood at 0.131 µM.

B3: p14* (peptide)
chain: VDLGTLRGYYNQSEA
For the molecule B3, the IC50 in the assay with HLA-DRB1*0101 (human) is 0.209 µM; with HLA-DRB1*0301 (human) it was greater than 100 µM; in the assay with HLA-DRB1*1301 (human) [1], greater than 100 µM; with HLA-DRB5*0101 (human), 11 µM; in the assay with HLA-DRB1*1101 (human) it was 1.55 µM; with HLA-DRB3*0101 (human), greater than 100 µM. Further, the IC50 in the assay with HLA-DRB1*0401 (human) is 8.83 µM; with HLA-DRB1*1501 (human), 0.082 µM; in the assay with HLA-DRB1*0701 (human), greater than 100 µM; in the assay with HLA-DRB4*0101 (human) [2] it was greater than 100 µM.

B4: p25 (peptide)
chain: KDYIALKEDLRSWTA
Regarding B4, the IC50 was 0.01 µM in the assay with HLA-DRB1*0101 (human); 1.63 µM with HLA-DRB1*0301 (human); 2.74 µM with HLA-DRB1*1301 (human) [1]; 0.052 µM with HLA-DRB5*0101 (human); 0.042 µM with HLA-DRB1*1101 (human); 85.5 µM with HLA-DRB3*0101 (human). In addition, the IC50 turned out to be 0.325 µM with HLA-DRB1*0401 (human), 0.125 µM with HLA-DRB1*1501 (human), 2.96 µM in the assay with HLA-DRB1*0701 (human) and 27.4 µM in the assay with HLA-DRB4*0101 (human) [2].

B5: p8* (peptide)
chain: VRFDSDAASQRMEPR
Turning to B5, the IC50 was 14 µM with HLA-DRB1*0101 (human); 1.4 µM with HLA-DRB1*0301 (human); greater than 100 µM with HLA-DRB1*1301 (human) [1]; 3.58 µM with HLA-DRB5*0101 (human); 58.3 µM with HLA-DRB1*1101 (human); 2.68 µM in the assay with HLA-DRB3*0101 (human). For the same molecule, the IC50 in the assay with HLA-DRB1*0401 (human) was 3.39 µM; in the assay with HLA-DRB1*1501 (human), greater than 100 µM; with HLA-DRB1*0701 (human) it was 4.65 µM; in the assay with HLA-DRB4*0101 (human) [2], greater than 100 µM.

B6: p40 (peptide)
chain: RCWALSFYPAEITLT
Consider B6, for which the IC50 with HLA-DRB1*0101 (human) was 0.026 µM; with HLA-DRB1*0301 (human), 5.23 µM; in the assay with HLA-DRB1*1301 (human) [1] it was greater than 100 µM; with HLA-DRB5*0101 (human), 0.812 µM; in the assay with HLA-DRB1*1101 (human), 40.6 µM; with HLA-DRB3*0101 (human), 3.97 µM. Further, the IC50 worked out at 2 µM with HLA-DRB1*0401 (human), 0.028 µM with HLA-DRB1*1501 (human), 0.045 µM with HLA-DRB1*0701 (human) and 4.52 µM with HLA-DRB4*0101 (human) [2].

B7: p39 (peptide)
chain: HAVSDHEATLRCWAL
B7 displayed an IC50 with HLA-DRB4*0101 (human) [4] of 0.008 µM.

B8: p42 (peptide)
chain: AEITLTWQRDGEDQT
Consider B8, for which the IC50 in the assay with HLA-DRB1*0101 (human) was 1.34 µM; in the assay with HLA-DRB1*0301 (human), greater than 100 µM; with HLA-DRB1*1301 (human) [1], greater than 100 µM; with HLA-DRB5*0101 (human) it was 4.69 µM; with HLA-DRB1*1101 (human), 6 µM; in the assay with HLA-DRB3*0101 (human) it was 30 µM. Further, the IC50 is greater than 100 µM with HLA-DRB1*0401 (human), 18.8 µM with HLA-DRB1*1501 (human), greater than 100 µM in the assay with HLA-DRB1*0701 (human) and 4.58 µM with HLA-DRB4*0101 (human) [2].

B9: p1* (peptide)
chain: HSMRYFFTSVSRPGR
Turning to B9, the IC50 was 0.003 µM with HLA-DRB1*0101 (human); 7.35 µM with HLA-DRB1*0301 (human); 0.365 µM in the assay with HLA-DRB1*1301 (human) [1]; 0.004 µM with HLA-DRB5*0101 (human); 0.002 µM with HLA-DRB1*1101 (human); greater than 100 µM in the assay with HLA-DRB3*0101 (human). In addition, the IC50 was 0.013 µM in the assay with HLA-DRB1*0401 (human), 0.509 µM with HLA-DRB1*1501 (human), 0.038 µM with HLA-DRB1*0701 (human) and 0.193 µM in the assay with HLA-DRB4*0101 (human) [2].
